Data from article PMC4222529 (Biochemistry, 2014).
No end group written: not given here. *: point of attachment. 5FAM = O=C1OC2(c3ccc(O)cc3Oc3cc(O)ccc32)c2ccc(C(=O)*)cc21

B1: 5′FAM-IKKβ_(KK/RR) (peptide, UniProt O14920 701-745, looked up)
chain: 5FAM-PARRSEELVAEAHNLCTLLENAIQDTVREQDQSFTALDWSWLQTE
modifications: not fully specified
B2: NEMOw (domain or fragment)
chain: GSWEQGAPETLQRCLEENQELRDAIRQSNQILRERCEELLHFQASQREEKEFLMCKFQEARKLVERLGLEKL

Key:
[1] = biological target: NEMOwNcc (UniProt Q9Y6K9); experiment: non-reducing SDS-PAGE
[2] = biological target: 5′FAM-IKKβ_(KK/RR) (UniProt O14920); experiment: fluorescence polarisation
[3] = biological target: NEMOwCcc (UniProt Q9Y6K9); experiment: non-reducing SDS-PAGE
[4] = biological target: T1, GST-NEMO(1–196) (UniProt Q9Y6K9 1-196); experiment: fluorescence polarisation
[5] = biological target: B2; experiment: fluorescence polarisation
[6] = biological target: T1, GST-NEMO(1–196); experiment: fluorescence polarisation; remark: listed apart in the source
[7] = biological target: the molecule itself; experiment: non-reducing SDS-PAGE
[8] = biological target: B1; experiment: fluorescence polarisation

NEMOwNcc (from UniProt Q9Y6K9 51-112) (designed binder)
stoichiometry N [1]: 2
Kd [2]: 980 nM

NEMOwCcc (from UniProt Q9Y6K9 44-112) (designed binder)
stoichiometry N [3]: 2
Kd [2]: 150 nM

B1
Kd [4]: 168 ± 4 nM
Kd [5]: ~10000 nM

PARRSEELVAEAHNLCTLLENAIQDTVREQDQSFTALDWSWLQTE (peptide, UniProt O14920 701-745, looked up) [IKKβ_(KK/RR)]
IC50 [6]: 167 ± 3 nM

B2
stoichiometry N [7]: 2

B3: NEMOwDcc (designed binder)
chain: GSWSVKELEDKNEELLSEIAHLKNEVARLKKLLQRCLEENQELRDAIRQSNQILRERCEELLHFQASQREEKEFLMCKFQEARKLVERLGLEKLELEDKNEELLSEIAHLKNEVARLKKLVGER
Kd [8]: 114 ± 3 nM
